This passage reports protein production results from a protein production outcome set (Wang et al. 2014).
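Also: failed if final PepcDB status was selected cloned or expressed and not failed if soluble or beyond.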

This data set is described as follows: label from the status in PepcDB records.
“MSKKKETKLSKYIKVPIKMLVKARDMYIRSMNQFSSHDLPGSGMSFGIPVCNVSTLPRSFSASHSQYSVRAEDDRVAKLVRAASARNATIDGARHEPSKLRKAKSSRSCGGHRGFEKIDEASPLISFGSKHKMFQRSKSYSVVKYLGS”: the protein production result is listed as “failed”.

On to “MEVKYLKDSEFLVLLLITTFVVITNVYFIAWDDSPQSWDPALHLTYSFVYFNLIKSLQFSEIVKVSNYYPPFFYLSSTPLYFLFGFSEDIAILTNLIYYFILIYSVFQIAKIMKDRNAGVISAVIISAFPALIKFQRVYMIDFALLSLTAFAILLYLRSEDFRNLKYSVLFGIVFGIAELTKWNAFVYIIPSIFALFLVNYFMRCPYCHQIVKNGWKVGYRRFCSKKHLKLYEKSAKTNNTMLNFAISLFVAFLFAAWWYLPNLSTVIMRLTYFANIGGKEGDPAFLTIQGWIYYANSILDAVGAVFLILFAVSIYYLYKNNRYLFLGLLTPIALIYIILTLLSNKDPRYIMPVLPFVAISIGVFVSSLANRKYSTILTFIILLFGLLNISALTFGQPDIDNKILPNPEHPKKEDWKIYALLEAIKESGGEGKIVVVLPDHPYLNGQSLNFYRLKEGYKFAIYNGVYIGYEAFVHNFDKITYIILIEPREHKGVYGDIEKKLYEFFYERKDNFEVVKVFDLPDNSKLYIYKRT”, for which the protein production entry is “failed”.

As to “MVILEQTHLVKNKAVDNKKSMKYSIFQQALTIAVILLISKIIESFMPIPMPASVIGLVLLFIALCTGIVKLGQVETVGTALTNNIGFLFVPAGISVINSLPILKQSPILIILLIIISTLLLLICTGFSSQLLVTKSLFPSKEKNEETSHIGG”, the protein production result was “failed”.

Take “MLNRGGFTYPGQRWKHCINTLLTGGVLLIVSASAYADSNALGYKIPGYELVYDAPMETTLTTPDLRPSDAVWISLFDNAQHTIELGQFYVANQAGTRLDSVLQHLRAAGERGVRIRLLLEEKGLKISTQDTLDQLKTIPNLELRVIPFERLSGGILHAKYLLVDGKQAYMGSQNLDWRALEHIHETGLLIDDPRVVNQISTIFEQDWQAQARLSNGETVPPLPASTDAVDRSGNYLVASPKAFNPAGVMDSEEELPRLLAEAQQQVRIQVMDYVPLSYGPDKTRPFYAVIDNAIRTAAARGVQVELMVSEWSTKMPNIAYLKSLALLPNIQIKTVSIPQVSSGFIPFARVIHSKIMTIDGTKTWIGTSNWSGGYLDNSRNLEMVIQNPAMAQRVDLLYTQLWNSAYAHPLRIDYDYPQPNPGGVKEKEQENTASSTTGGTVTAP”: the protein production entry is listed as “failed”.

Take “MNKFENFYKVPISYKNRKNEIYKYDNLEYNKMKYGMPEYYRCPYYMHENRNLYNTESCYTPNINVGRNSFYGKTLDPNDKICEENDSVYNILEEDHKEESFKKIECMNKEDDRKKIYNKVEKNDDENIDNKKHNYCEKYEEVYPKDRSSIKIIYNDVDQQIDHNLYDDENEIVCDNEIKKRKKRDRKVFMGKYFFSDIINTIIYPCTNKSLQKYQYGSVENMDYSLYNDIQKGQKIQKVDKIKNKKAPQIIVKF”: the protein production result is “failed”.

Take “MLEACTKCGTCAEACTMYLGSGRKKIYSPVYRSDMLRKIYKKHFTLTGKLFGPLIGAKDPTEDDINALAESAYRCTVCRRCALACPFGLDNGLITRETRKIFADLGILEHHHHHH”: the protein production result is reported as “failed”.

As for “MLIKLRKQKQDENISFFSHFFAVFTGIFFVMTVIIIQVMHFGIYSSVDNSLKIATENVNDYVNMTLSHNNPITEAENGDASFKVKSNGQMAANTDTILYDKKHNVINNVNAFSSLYHIRPKLKDIGDIVEQEAKNIYGQTEKYRTVTVKVNNDFYPQIKFATIVINTTQLEEANTRYVTIIISVMIVFWLISVIASVYLAKWSQKPILENYEKQKSFVENASHELRTPLAVLQNRLESLFRKPEATILDSSESIASSLEEVRNMRMLTANLLNLARRDDGIKPEITEIQPRFFDDTFKNYEMIARENGKKLHIINKVNRQIKTDKTLLKQLMTILFDNAVKYTDNDGEIWLDVKTTDRSLIFSVADNGQGISDEDKKKIFDRFYRVDKARTRQKGGFGLGLSLAKQITDSLKGSIIVKDKKPQGVMFEARLLANK”, the protein production entry is listed as “failed”.

On to “MGSSHHHHHHSSGRENLYFQGMRLKSEMFVSALIRRVFAAGGFAAVEKKGAEAAGAIFVRQRLRDGRENLYGPAPQSFADDEDIMRAERRFETRLAGVEGEEIAALLERERRFDSDLWVVEIETDEIGTLLTLVDQPQA”, for which the protein production result is “not failed”.

Consider “MAALGLGTYGAHVFKPENPSYKQVWQTASLYHLVHTAALVSAPSTKYPNIFGGLLTAGIVAFSGTCYMVALREDRKFSTLAPFGGFAFIAAWATLLF”, for which the protein production result is given as “failed”.

On to “MDKRRVVVTGVGAVTPIGNDAETSWENAKKGVNGVAKMTRLNPDDFPVKIAAELKDFDVEKYLEKKEARKMDRFTHYAIASAEMAVQDSGLVIDDSNANRVGVWIGSGIGGMETFETQYEIFLNRGHRRVSPFFVPMMIPDMGSGQVSIRFGAKGINSTTVTACATATNSIGDAFKVIERGDADAMITGGAEAPITKMSLAGFTANKALSLNPDPETACRPFDKDRDGFIIGEGAGIVILEEYEHAKARGAKIYAEIVGYGATGDAYHITAPAPNGEGAARAMKMAIDDAGLTPDKVDYINAHGTSTPYNDEYETQAIKTVFGEHAKKLAISSTKSMTGHTLGASGGIEAIFALLTIRDNIIAPTIHLKNQDEVCDLDYVPNEAREANVNVVISNSFGFGGHNATLVFKRIED”, for which the protein production result is reported as “not failed”.

As for “MSRMMPARVRSEGIALYAKGFLNDPIETDFKLTAEIDGEEVSYDLDGAQDSCTCAVFQQNHRYCKHIAAIEEYLKNQDKGSQETKDKEIKGAERALFGENVAFLDAVNGETQLNFNTDQYSIEVQIEDNSQLYDYFSMDYFLYFDLKLRSKNLGRSYVIKDIPYFLRALKNYSQYSLGSLHYIDLFFDNFDEASQEFLTFLLKIDSKSDEALTKSLYIKNGRYLNIPFLFLEEAMDLVSALENYQLQITGRTVNYFTFIALDNDSEIFKFKVESQQDYIELKLYSEDYHNFYDYSLLYANNVFYKLNQEQRRLLLVLDKQFAKKSQIKFSYADKDKLAQALQQLSTLGEIEAPDHFVVRPFDAKFTFDLLEDQTISLAMTFDYGSFSIDSFHDLETLEFSRDLRKEQKIFALMERLQFAKAFNSSLNIPENLSEHFFLKILPAFQKLGQIELSPTLRNMRMDEVPEIHIDSQGGLLDISFDIPQVEDGEFANVIAKLQENAEFYISESGKFYHFNEKFDRLKAALNELDDQFVIQGSSLHVNINRSFQISKIFENIGGASFSEKFKSLYQHLTHPEEFPYEKPEHIKASLRSYQETGVRWMSMLSHYNLGGILADDMGLGKTVQAITFILSNLKKDESVLITAPASLTYNWASEFEKFTDEIDFAVIDGTKAERSKEIQEKHQIYITSYGSFLKDFEDYQDKKLNYLLLDEAQVVKNYSSKTNKSLSALNVEHTFALSGTPLENRIEEIWAIFQVVMPGFLPKREKFNKMEPSVISRLIQPFIMRRKKEDVLEELPEKMEITVYNQLADDQKVIYLAQLELMQKQVLEMDSAALSRSRIEILAGITRLRQICNTPALFMDDYKGSSGKLERLRELLAQIKDSGHRPLIFSQFTKVFPHIEKLMEEQEMTAYKLTGSTPIKDRLSMVQAFNAGSRDAFLVSLKAGGVGLNLTSADVVILVDLWWNPAVEEQAIARAHRMGQKNTVEVIRLITKGTIEEKIMEIQERKKDLIANVLEGDTVDKVLSEAEIREILGV”, the protein production entry is “failed”.

As for “MAEFLHRFAQGFAALNKDNLDQVAELYSEDVSFSDPMHDIHGLAAMQRYFAELYANVRDLHFDFHAFDEVRPGEGYLVWTMSYSHPRLAGGRTIRVEGCSHLKWRDKVYRHRDYFDAGALLYEHLP”, the protein production result is “failed”.

As to “GNPKLKDLYIRPNIVTKRMTGSLEAHSNGFRYISVRGDKVDILYNNIKSAFFQPCDGEMIILLHFHLKYAIMFGKKKHVDVQFYTEVGEITTDLG”, the protein production result was “failed”.

Consider “MILTPLALTPDHDIPGPVLTELTALYASHRAFHALSGDFPDPEDIRPEQVATALADELARPGAEVLLARDAGRLVGVAVTLARHPDPSDPDPWIGLLMVDAGLTRQGHGSRLVSLVEDRFRAAGRTAVRLAVLDGNTDALSFWTALGYRVLDHRRDLGAERPCTVLRRELASDKPRTPRRAARVAVLDPEGAVFLLRYDNVEVGVHWAMPGGGLEADENPREGALREVREETGWTDLEPGPLLCTWEHDFTHLSVGPVRQYEHIYVAQGPRREPTGPHLAAAHAADGILTWRWWSRAELAEAPEPLWPPDLALLLETFGGREG”, for which the protein production entry is on record as “failed”.

Turning to “MKKKFIITFILSLALFAGIFWVANKVLDIMELTSKVEFVGSDLGEGNNIEQRVENELLFLVLGLDSDDFSGATTEQNRTDTMILCKVNFDTGKIDILSIPRDSRVMVNGKLDKINHAHHFGGLKLAMKTTRDFLNLDIDYYVRVNFFSVKDIVDALGGVEVDVPVQVDVAEDNVHLKPGKQVLNGKQALQFARFRAGYKEGDVGRVKAQQILIKALVKELTKAKNIAKIPEILEVVKKTVNTNIPFSTIAKLSLKVNNLSEDKINTQIVPGESAYINNTSYFIPDRSKLNAIVKEMFSDYLLNKSGSSQVDTDKNKNNTNTKNNNNKNNNTNNRNNSNNNKNNNNKNNKNNKNNNR”, the protein production result is recorded as “failed”.

Regarding “MGSSHHHHHHSSGRENLYFQGMAATAREDGASGQERGQRGCEHYDRGCLLKAPCCDKLYTCRLCHDNNEDHQLDRFKVKEVQCINCEKIQHAQQTCEECSTLFGEYYCDICHLFDKDKKQYHCENCGICRIGPKEDFFHCLKCNLCLAMNLQGRHKCIENVSRQNCPICLEDIHTSRVVAHVLPCGHLLHRTCYEEMLKEGYRCPLCMHSALDMTRYWRQLDDEVAQTPMPSEYQNMTVDILCNDCNGRSTVQFHILGMKCKICESYNTAQAGGRRISLDQQ”, the protein production entry is “failed”.

As to “MRERFDVVIAGAGPAGAQCARDLAERNYEVLVLESEPEDGFPRQSNKSTAGTFMSAMTGFAIPDDVVMNYTDNVVLESPNDHYVRNQTGAVLEFAEFKQWLVSEGRDKGATYRFDSRVSAPIMENGEIVGVRYDGDEEVYADIVIDATGPAAPLAKELDVCNLQRNHQAIGVEYEFEGVEVDHDDYADLRDAMMLRLDHDLAPGGYSWIFHTGEDTAKVGLCYIQNGSHQKYAKDGMGIDDYLEYWLDSDPRFDDAERIEGTQAHRGSAHIQPPDSMSTDNFMAIGDTVPTVDPLWGEGIHKGMKSARAAAATADSALKPDEPDTSAENLSVYDQLWHSEVAPKHNARLMMTELLYLAPNERYDQLMDDLRSTGQDTLRQINGGDRRAIAKLTHLSDMPILVEYARRRLDILEHHHHHH”, the protein production entry was “failed”.

As to “NNLFVYCEIEEGIVADVSLELLTKGRSLANELNCQLEAVVAGTGLKEIEKQILPYGVDKLHVFDAEGLYPYTSLPHTSILVNLFKEEQPQICLMGATVIGRDLGPRVSSALTSGLTADCTSLEIGDHEDKKEGKVYKNLLYQIRPAFGGNIVATIVNPEHRPQMATVREGVMKKEIVSPAYQGEVIRHDVKKYVADTDYVVKVIERHVEKAKNN”, the protein production entry is reported as “not failed”.

On to “MSSIGYSRRFRLFRRGEVTVLEVMAGQKAYPDTLRYLLVPEGRPQPSGFVGYTVIRTPVKRIAVFSTTHIGFLDMLGRSDGIIGVSRPEFVNTPAVRSRIRSGAIKAIGMPFSPDVEALLNLEPDLVIAPALPAARKTDYQALVQAGIPVLVVAEWLEPSPLGRAEWIKLFGALVGKEKLARERFAAIESSYLKIAALSRNLPNRPTVLTGLPVKDAWYVPTGGSYVAAMLRDAGASYHWRDLPGTGSVPLTIEAVWPVALEAEYWLNTGTVSTLDELLAVDSRFGQMRSVRERRVWNNNRLVNAAGGNAYWESGVVRPDLILKDLVMILHPGLLRAHGIGEGELTFFQEVKLEHHHHHH”, for which the protein production entry was “not failed”.

On to “MSDDNSHSSDTVNSKKGFFSLLLSQLFHGEPKNRDELLALIRDSGQNELIDEDTRDMLEGVMDIADQRVRDIMIPRSQMITLKRNQTLDECLDVIIESAHSRFPVISEDKDHIEGILMAKDLLPFMRSDAEAFSMDKVLRTAVVVPESKRVDRMLKEFRSQRYHMAIVIDEFGGVSGLVTIEDILELIVGEIEDEYDEEDDIDFRQLSRHTWTIRALASIEDFNDAFGTHFSDEEVDTIGGLVMQAFGHLPARGETIDIDGYQFKVAMADSRRIIQVHVRIPDDSPQPKLDE”, for which the protein production result is reported as “not failed”.
